Results on 167 variants are retold here after the MegaScale stability set (Tsuboyama et al. 2023).

Sequences and labels used below:
B1: 2K2A (parent)
chain: ELREAFRLYDKEGNGYISTDVMREILAELDETLSSEDLDAMIDEIDADGSGTVDFEEFMGVMT

This series covers variants of B1. The series can be described thus: folding stability dG (cDNA display proteolysis); higher = more stable. The settings on record: PBS, room temperature.
With D20H, the “folding stability dG” value is 2.05 kcal/mol.
With D20A the figure was 2.28 kcal/mol; with D20W, 1.99 kcal/mol.
Under E4C stands 2.85 kcal/mol; under E4K, 1.64 kcal/mol.
Regarding E4R, the “folding stability dG” value is 1.6 kcal/mol.
As for E4V, the “folding stability dG” value turned out to be 1.39 kcal/mol.
With E4T the figure was 1.23 kcal/mol; with E4W, 1.41 kcal/mol.
Turning to E4H, the “folding stability dG” value turned out to be 1.36 kcal/mol.
As for E4A, the “folding stability dG” value worked out at 1.77 kcal/mol.
With E4G the figure was 0.935 kcal/mol; with L2R, 0.34 kcal/mol; with G15D, 0.537 kcal/mol.
Take G15P: the “folding stability dG” value came out at 0.347 kcal/mol.
With G15N, the “folding stability dG” value stood at 0.741 kcal/mol.
Turning to G15A, the “folding stability dG” value was 0.588 kcal/mol.
For the variant R3T, the “folding stability dG” value came out at 1.44 kcal/mol.
On to R3W, for which the “folding stability dG” value is 2.29 kcal/mol.
R3G: the “folding stability dG” value was determined as 1.48 kcal/mol.
Under R3V stands 1.77 kcal/mol; under R3Y, 2.48 kcal/mol.
With I17M the figure was 0.435 kcal/mol; with I17V, 1.22 kcal/mol.
Turning to M59A, the “folding stability dG” value was 2.04 kcal/mol.
As for M59I, the “folding stability dG” value came out at 2.03 kcal/mol.
As for M59N, the “folding stability dG” value worked out at 0.889 kcal/mol.
With M59G, the “folding stability dG” value worked out at 0.537 kcal/mol.
For the variant M59V, the “folding stability dG” value amounted to 2.18 kcal/mol.
Regarding M59W, the “folding stability dG” value came out at 1.4 kcal/mol.
As for M59R, the “folding stability dG” value was 1.96 kcal/mol.
As to M62D, the “folding stability dG” value amounted to 0.171 kcal/mol.
In the case of M62G, the “folding stability dG” value was 0.514 kcal/mol.
Consider M62Y, for which the “folding stability dG” value amounted to 1.58 kcal/mol.
For the variant M62C, the “folding stability dG” value was found to be 1.81 kcal/mol.
As for M62A, the “folding stability dG” value is 0.857 kcal/mol.
Turning to M62W, the “folding stability dG” value was found to be 1.83 kcal/mol.
With D39N the figure was 1.58 kcal/mol.
As for D39T, the “folding stability dG” value amounted to 1.3 kcal/mol.
For the variant D39S, the “folding stability dG” value amounted to 1.39 kcal/mol.
D39M: the “folding stability dG” value is 1.32 kcal/mol.
With V21L the figure was 2.19 kcal/mol; with V21H, 1.77 kcal/mol.
For the variant V21K, the “folding stability dG” value came to 2.04 kcal/mol.
Turning to V21Y, the “folding stability dG” value is 1.61 kcal/mol.
Take V21Q: the “folding stability dG” value was 2.36 kcal/mol.
With V21S the figure was 1.94 kcal/mol.
Consider E12R, for which the “folding stability dG” value turned out to be 0.846 kcal/mol.
Under L38S stands -0.47 kcal/mol.
For the variant L38W, the “folding stability dG” value amounted to 0.599 kcal/mol.
For the variant L38A, the “folding stability dG” value was determined as 0.262 kcal/mol.
Regarding L38E, the “folding stability dG” value was -0.551 kcal/mol.
For L38T, the “folding stability dG” value is 0.114 kcal/mol.
L38G: the “folding stability dG” value was -0.721 kcal/mol.
On to A40S, for which the “folding stability dG” value was 1.73 kcal/mol.
On to D54L, for which the “folding stability dG” value turned out to be 1.43 kcal/mol.
On to D54F, for which the “folding stability dG” value amounted to 1.79 kcal/mol.
D54V: the “folding stability dG” value came out at 1.38 kcal/mol.
With D54H the figure was 1.68 kcal/mol; with T32S, 1.99 kcal/mol; with T32M, 1.52 kcal/mol.
Consider L8M, for which the “folding stability dG” value is 2.05 kcal/mol.
On to L8P, for which the “folding stability dG” value worked out at 0.853 kcal/mol.
Take L8Y: the “folding stability dG” value was found to be 1.98 kcal/mol.
L8H: the “folding stability dG” value was determined as 2.01 kcal/mol.
Regarding E44M, the “folding stability dG” value came out at 2.14 kcal/mol.
With E44C the figure was 2.19 kcal/mol; with E44H, 2.06 kcal/mol; with E44F, 2.17 kcal/mol.
As for Y16L, the “folding stability dG” value amounted to 0.96 kcal/mol.
With Y16K, the “folding stability dG” value is 1.19 kcal/mol.
Take Y16P: the “folding stability dG” value is -0.96 kcal/mol.
On to Y16D, for which the “folding stability dG” value was -0.18 kcal/mol.
Y16T: the “folding stability dG” value was determined as 1.05 kcal/mol.
With A27L the figure was 2.06 kcal/mol.
Regarding A27N, the “folding stability dG” value came out at 1.24 kcal/mol.
For A27S, the “folding stability dG” value was determined as 1.87 kcal/mol.
Regarding E36L, the “folding stability dG” value was determined as 1.66 kcal/mol.
In the case of E36P, the “folding stability dG” value came out at 1.04 kcal/mol.
With E36V the figure was 1.69 kcal/mol; with E36Q, 1.82 kcal/mol.
For E36A, the “folding stability dG” value was found to be 1.96 kcal/mol.
With E36G the figure was 1.54 kcal/mol; with R23G, -0.378 kcal/mol.
Regarding V61L, the “folding stability dG” value is 2.06 kcal/mol.
With V61T the figure was 1.21 kcal/mol; with V61R, 1.16 kcal/mol.
Consider S35A, for which the “folding stability dG” value worked out at 1.92 kcal/mol.
Regarding S35W, the “folding stability dG” value was determined as 1.48 kcal/mol.
Under S35E stands 2.15 kcal/mol.
Under S35R stands 1.96 kcal/mol; under S35Q, 2.05 kcal/mol.
With N14L the figure was 2.17 kcal/mol.
Regarding N14A, the “folding stability dG” value is 1.55 kcal/mol.
Turning to N14P, the “folding stability dG” value is -0.347 kcal/mol.
With N14W the figure was 1.38 kcal/mol; with A47P, 1.92 kcal/mol.
With A47Y the figure was 1.62 kcal/mol; with A47C, 1.97 kcal/mol.
Under A47E stands 1.4 kcal/mol; under A47T, 1.84 kcal/mol; under Y9M, 1.43 kcal/mol.
For the variant Y9K, the “folding stability dG” value turned out to be 0.775 kcal/mol.
Consider Y9D, for which the “folding stability dG” value was 0.261 kcal/mol.
On to Y9S, for which the “folding stability dG” value was determined as 0.532 kcal/mol.
As for L29D, the “folding stability dG” value amounted to 0.372 kcal/mol.
L29N: the “folding stability dG” value was found to be 1.34 kcal/mol.
With L29Y, the “folding stability dG” value is 1.92 kcal/mol.
Consider L29I, for which the “folding stability dG” value was found to be 1.64 kcal/mol.
For the variant L29S, the “folding stability dG” value is 1.32 kcal/mol.
As for L29W, the “folding stability dG” value came out at 2.15 kcal/mol.
For L29T, the “folding stability dG” value was found to be 1.15 kcal/mol.
Consider D43G, for which the “folding stability dG” value stood at 1.87 kcal/mol.
Regarding D43L, the “folding stability dG” value came out at 2.23 kcal/mol.
Under E56S stands 1.75 kcal/mol; under E56W, 1.99 kcal/mol; under E56T, 1.69 kcal/mol.
Take F55V: the “folding stability dG” value turned out to be 1.32 kcal/mol.
Turning to F55D, the “folding stability dG” value was -0.867 kcal/mol.
On to F55R, for which the “folding stability dG” value was found to be 0.375 kcal/mol.
For F55L, the “folding stability dG” value was found to be 1.66 kcal/mol.
On to F55S, for which the “folding stability dG” value was found to be 0.161 kcal/mol.
For the variant F55I, the “folding stability dG” value came out at 1.47 kcal/mol.
Consider F6D, for which the “folding stability dG” value stood at 0.525 kcal/mol.
Turning to F6I, the “folding stability dG” value stood at 0.623 kcal/mol.
With D37M the figure was 1.96 kcal/mol; with D37T, 1.76 kcal/mol.
With D37S, the “folding stability dG” value worked out at 1.52 kcal/mol.
Under E28S stands 2.34 kcal/mol; under E28I, 1.85 kcal/mol; under E28V, 1.76 kcal/mol.
Take E28N: the “folding stability dG” value stood at 2.22 kcal/mol.
For E28A, the “folding stability dG” value turned out to be 2.46 kcal/mol.
E28P: the “folding stability dG” value is -0.155 kcal/mol.
Take L33A: the “folding stability dG” value stood at 1.02 kcal/mol.
Consider L33W, for which the “folding stability dG” value stood at 1.83 kcal/mol.
On to L33C, for which the “folding stability dG” value amounted to 1.07 kcal/mol.
As to L33T, the “folding stability dG” value amounted to 0.695 kcal/mol.
As to L33G, the “folding stability dG” value is -0.126 kcal/mol.
On to L33R, for which the “folding stability dG” value was determined as 1.36 kcal/mol.
With L33I, the “folding stability dG” value is 1.36 kcal/mol.
For L33E, the “folding stability dG” value was -0.382 kcal/mol.
For the variant L33S, the “folding stability dG” value is 0.411 kcal/mol.
For the variant G60V, the “folding stability dG” value came out at 2.13 kcal/mol.
As to G60N, the “folding stability dG” value stood at 2.15 kcal/mol.
For I45G, the “folding stability dG” value was 0.37 kcal/mol.
Regarding I45Y, the “folding stability dG” value came out at 1.05 kcal/mol.
With E57R, the “folding stability dG” value is 2.48 kcal/mol.
As to E57M, the “folding stability dG” value is 2.37 kcal/mol.
Under E57N stands 2 kcal/mol; under E57V, 2.26 kcal/mol.
E57W: the “folding stability dG” value came out at 1.55 kcal/mol.
On to E57G, for which the “folding stability dG” value is 2.33 kcal/mol.
On to A5P, for which the “folding stability dG” value worked out at 0.29 kcal/mol.
With A5I, the “folding stability dG” value came to 2.78 kcal/mol.
For A5D, the “folding stability dG” value came out at 1.18 kcal/mol.
Turning to A5N, the “folding stability dG” value is 1.13 kcal/mol.
Turning to V53P, the “folding stability dG” value was -0.828 kcal/mol.
As to V53Y, the “folding stability dG” value amounted to 0.679 kcal/mol.
Regarding V53I, the “folding stability dG” value is 2.37 kcal/mol.
Turning to V53W, the “folding stability dG” value worked out at 0.916 kcal/mol.
With V53Q, the “folding stability dG” value was -0.515 kcal/mol.
Turning to D48Q, the “folding stability dG” value is 1.31 kcal/mol.
With D48C, the “folding stability dG” value is 1.4 kcal/mol.
On to D48T, for which the “folding stability dG” value amounted to 1.6 kcal/mol.
Under D48R stands 1.52 kcal/mol; under D48A, 1.48 kcal/mol.
